The values that follow come from publication PMC2464603, “Roles of Arabidopsis WRKY3 and WRKY4 Transcription Factors in Plant Responses to Pathogens”.

Series [1] addresses WRKY3 (Arabidopsis, UniProt Q9ZQ70 1-513). Description: EMSA; not stated; DNA-binding assays as previously described (ref 15). To be noted: protein: recombinant.
Series [2] deals with WRKY4 (Arabidopsis, UniProt Q9XI90 1-514). The series is described as above. To be noted: protein: recombinant.
Sequence of WRKY4 (Q9XI90 whole entry): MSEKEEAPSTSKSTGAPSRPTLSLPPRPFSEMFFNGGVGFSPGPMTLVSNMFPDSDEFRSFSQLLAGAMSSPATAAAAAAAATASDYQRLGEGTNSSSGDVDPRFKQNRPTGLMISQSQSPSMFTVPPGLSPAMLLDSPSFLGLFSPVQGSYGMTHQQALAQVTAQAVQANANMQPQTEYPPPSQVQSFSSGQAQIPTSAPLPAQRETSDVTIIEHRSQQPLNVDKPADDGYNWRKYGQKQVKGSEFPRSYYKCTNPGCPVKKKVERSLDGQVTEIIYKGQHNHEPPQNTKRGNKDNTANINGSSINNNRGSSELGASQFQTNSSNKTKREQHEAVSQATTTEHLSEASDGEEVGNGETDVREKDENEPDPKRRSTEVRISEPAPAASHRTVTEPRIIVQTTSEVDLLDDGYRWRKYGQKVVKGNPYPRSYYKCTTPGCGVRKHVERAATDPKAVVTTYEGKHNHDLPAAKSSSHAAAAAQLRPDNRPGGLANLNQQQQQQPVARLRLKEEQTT

Sequence of WRKY3 (Q9ZQ70 whole entry): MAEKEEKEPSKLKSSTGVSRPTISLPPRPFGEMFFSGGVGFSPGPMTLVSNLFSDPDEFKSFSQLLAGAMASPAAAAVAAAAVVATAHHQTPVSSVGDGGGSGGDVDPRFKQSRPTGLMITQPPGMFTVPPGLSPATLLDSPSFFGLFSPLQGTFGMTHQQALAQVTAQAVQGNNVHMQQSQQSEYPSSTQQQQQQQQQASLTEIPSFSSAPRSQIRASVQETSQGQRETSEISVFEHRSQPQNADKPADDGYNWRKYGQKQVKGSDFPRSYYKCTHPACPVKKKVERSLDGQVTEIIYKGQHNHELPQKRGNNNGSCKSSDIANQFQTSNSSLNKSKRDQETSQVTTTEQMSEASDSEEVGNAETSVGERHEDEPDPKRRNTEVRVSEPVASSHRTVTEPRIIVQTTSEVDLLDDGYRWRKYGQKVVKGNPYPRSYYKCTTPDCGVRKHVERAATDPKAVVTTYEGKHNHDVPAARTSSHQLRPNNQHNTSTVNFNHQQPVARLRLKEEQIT

B1: Pchn0 (dsDNA)
DNA 1: GGAACTTGACCTTGACCTTAGGGCTGCAGGAATTCG
DNA 2: CGAATTCCTGCAGCCCTAAGGTCAAGGTCAAGTTCC
Consider B1, for which the binding result in series [1] and in series [2] was “binds” throughout.

B2: mPchn0 (dsDNA)
DNA 1: GGAACTTGAACTTGAACTTAGGGCTGCAGGAATTCG
DNA 2: CGAATTCCTGCAGCCCTAAGTTCAAGTTCAAGTTCC
On to B2, for which the binding result in series [1] is “no binding”.
